This data set is described as follows: yeast display, Sf9 membrane polyspecificity reagent, FACS + sequencing; frameworks hold sequencing errors. Put shortly:
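Polyreactivity labels are assigned by the sorting gate from which each nanobody was recovered. The gates were low and high (top ~1%), set on anti-HA fluorescence for expression and streptavidin fluorescence for reagent binding. Before sorting, galactose-induced (36–48 hours) yeast display cells were stained for 1 hour at 4 °C with 10% biotinylated, detergent-solubilized Sf9 membrane reagent.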
Regarding “QVQLVESGGGLVQAGGSLRLSCAASGSTFQTYAMGWYRQAPGKERELVAAITSGGSTNYADSVNGRFTISRDNAKNTVYLQMNSLKPEDTAVYYCAGRQIYQTSEHRLQYDYWGQGTQVTVSS”, the “polyreactivity (PSR sort gate)” value was “low polyreactivity”.
The result for “QVQLVESGGGLVQAGGSLRLSCAASGITFGWYAMGWYRPAPGKERELVAAISWSGGTTYYADSVKGRFTISRDNAKNTVYLQMNSLKPEDTAVYYCAATWYYPTVYAGNYWGQGTQVTVSS” reads “high polyreactivity”; that for “QVQLVESGGGLVQAGGSLRLSCAASGRTFRRYAMGWYRQAPGKERELVAAISYSGTTTYYADSVKGRFTISRDNAKNTVYLQMNSLKPEDTAVYYCNKATAFGLDYWGQGTQVTVSS”, “high polyreactivity”.
As for “QVQLVESGGGVVQAGGSLRLSCAASGSTAIYYTMGWYRQAPGKERELVAYADSVKGRFTISRDNAKTTVYLQMNSLKPEDTAVYSCAAPRTYYSELTSPYDYWGQGTQVTVSS”, the “polyreactivity (PSR sort gate)” value is given as “low polyreactivity”.
The result for “QDQLVESGGGLDQAGGSLRLSCAASGSTFSPYAMGWYRQAPGKERELVAGITSSGGDSYYADSVKGRFTISRDNAKNTVYLQMKSLKPEDTAVYYCAADWWVLGQLCFDYWGQGTQVNVSS” reads “low polyreactivity”.
As for “QVQLVESGGGLVQAGGSLRLSCAASGFTFGPYVKGWYRQAPGKERELVAAISKSGGSTYYADSVKGRFTISRDYAKNTVYLQMNSLKPEDTAVYYCATDYLGGGKRYYYWGQGTQVTVSS”, the “polyreactivity (PSR sort gate)” value is reported as “high polyreactivity”.
The result for “QVQHVESGGGLVQAGGSLRLSCAASGRTFNLKAMGWYRQAPGKERELVAAISWSGGSTYYADSVKGRFTISRDNAKNTVYLQMNSLKPEDTAVYYCAAETYAYLFHTYDYWGQGTQVTVSS” reads “low polyreactivity”; that for “QVHLVESGGGLVQAGGSLRLSCAASGRTFVPYVMGWYRQAPGKERELVATINWSGGSTYYADSVKGLFTISRDNAKNTVYLQMNSLKPEDTAVYYCAARYYSDWFYYLFRYDYLGQGTQVTVSS”, “low polyreactivity”.
The result for “QVQLVESGGGLVQAGGSLRLSCAASGLILSAYAMGWYRQAPGKERELVAAISKRGGSTYYADSVKGRFTISRDNAKNTVYSQMNSLKPEDTAVYYCAADYTKHYWGQGTQVTVSS” reads “high polyreactivity”; that for “QVQLVESGGGLVQAGGSLRLSCAASGRIFTTYAMGWYRQAPGKERELVASITTTDTRTYADSVKGRFTISRDNAKNTVYLQMNSLKPEDTAVYNCAKDRLNKGRYYRAASDYWGQGTQVTVSS”, “low polyreactivity”; that for “QVQLVESGGGLVQAGGSLRLSCAASGSTFGANAMGLYRQAPGKEREFVAAISRSGVRTYYADSVKGRFTISRDNAQNTVYLQMNSLKPEDTAVYYCAADGYWWTYTRYDYWGQGTQVTVSS”, “low polyreactivity”.
“QVQLVESGGGLVQAGGSLRLSCAASGGTFWIYAMGWYRQAPGKERELVAGISHGDSTYYADSVKGRFTISRDNAKNTVYLQMNSLKPEDTAVYYCARDYRNPPFAYEYWGQGTQVTVSS”: the “polyreactivity (PSR sort gate)” value is recorded as “low polyreactivity”.
With “QVQLVEAGGGLVQAGGSLRLSCAASVSTLFFNAMGWYRQGTGKERELVAGITDGGNTNYADSVKGRFTISRDNAKNTVYIQMNSLKPEDTAVYYCATDGVNPFYAYDYWGQGTQVTVSS” the entry was “low polyreactivity”; with “QVQLQESGGGLVQAGGSLRLSCAASGSNFDTPTMGWYRQAPGKERELVASSAYDDNTYYADSVKGRFTISRYNAKNTVYLQRNSLKPGDTAVYYCAVTDRIYYYFVYWGQGTRVTVSS”, “high polyreactivity”.
In the case of “QVQLVESGGGLVQAGGSLRLSCAASGPIFDGYVMGWYRQAPGKERELVAAISKSGARTYYADSVKGRFTISRDNAKNTVYLQMNSLKPEHTAVYYCARFSGVDNAYDYWGQGTQVTVSS”, the “polyreactivity (PSR sort gate)” value is reported as “high polyreactivity”.
The result for “QVQLVESGGGLVQAGGSLRLSCAASGRTFVGYAMGGYRQAPGQERELVANMTTSGGNTYYADSVKGRFTISRDNAKNTDYLQMNSLKPEDTAVYYCAARVYWVTRAVSTSYYYWGQGTQGTVSS” reads “high polyreactivity”.

The values are drawn from the nanobody polyreactivity screen of Harvey et al. (2022).
